Blank lines part the entries; values can stand above or below the substance they belong to.
Assays:
[1] = biological target: EGFR (UniProt P00533); assay: flow cytometry on MDAMB468 cells, Alexa Fluor 488 anti-human IgG Fab as secondary, on ice
[2] = biological target: EGFR (UniProt P00533); assay: cell-based or functional assay
[3] = biological target: CD33 (UniProt P20138); assay: flow cytometry on CD33-expressing MV411 cells, Alexa Fluor 488 anti-human IgG Fab as secondary, on ice

EC50 (read off the curve) [1]: 0.6 nM
Substance: EGFR-binding antibody Cetuximab

remaining nuclear BRD4 (immunofluorescence) in EGFR-expressing MDAMB468 cells at 4 nM [2]: 44.2%
Substance: C225-L328C-GNE987 (antibody)
IC50 cell viability, MDAMB468 cells, three independent experiments [2]: 0.8 nM

EC50 (read off the curve) [3]: 0.3 nM
Substance: CD33-binding antibody Gemtuzumab (IgG4-PG-SPLE)

Source: patent publication US20250312468A1, “ANTI-PROTAC ANTIBODIES AND COMPLEXES” (Merck Patent GmbH, priority 2021, published 2025)
